The results in this text go back to the DeepSol protein solubility set.

The data set is described as follows: soluble on expression in E. coli; label from the status in PepcDB or PDB records.
Turning to “STPSIVIASAARTAVGSFNGAFANTPAHELGATVISAVLERAGVAAGEVNEVILGQVLPAGEGQNPARQAAMKAGVPQEATAWGMNQLCGSGLRAVALGMQQIATGDASIIVAGGMESMSMAPHCAHLRGGVKMGDFKMIDTMIKDGLTDAFYGYHMGTTAENVAKQWQLSRDEQDAFAVASQNKAEAAQKDGRFKDEIVPFIVKGRKGDITVDADEYIRHGATLDSMAKLRPAFDKEGTVTAGNASGLNDGAAAALLMSEAEASRRGIQPLGRIVSWATVGVDPKVMGTGPIPASRKALERAGWKIGDLDLVEAAEAFAAQACAVNKDLGWDPSIVNVNGGAIAIGHPIGASGARILNTLLFEMKRRGARKGLATLCIGGGMGVAMCIESL”, the “soluble on expression in E. coli” value is reported as “soluble”. With “MCFRTENGDFFGWEGVENTVGCGAGTCTHVWNYAQTVAFLFPELEQSMRRIEFLQETQADGYMPFRTYRPFGLPAWEMLPSADGQLGAVVRLYREWRLSGDNRLIEDCWDGVVRSMEYAIRTWDTDGDFVPDSAQHVTYDTELYGMTSMVSTLFFAALIAAAEMAEYMGDQERARRYRDGAEKGAKLMDEKCWNGEYYIQLIDDVDKYRYQYGKGCLSDQLLGQFLAQEAGLGYVLPKNHVKKAAESIFRYNFIERASDFGHVQRAYIFNDEMGLTPCTWPLGERPRFPFIYFGEVWTGIEYEVAALLIREDLLEEGLTIVKAVRDRQDGYRRNPWSENESGYYYTRAMASYSILNALSGFSCDQRKNQMSFQPKLNQDNFRCFWCNGKSWGIFSQKKEKGEIRQELQVLYGEKDVSVINLEHHHHHH” the entry was “not soluble”; with “MVGSLNCIVAVSQNMGIGKNGDLPWPPLRNEFRYFSRMTTTSSVEGKQNLVIMGKKTWFSIPEKFRPLKGRINLVLSRELKEPPQGAHFLSRSLDDALKLTEQPELANKVDMVWIVGGSSVYKEAMNHPGHLKLFVTRIMQDFESDTFFPEIDLEKYKLLPEYPGVLSDVQEEKGIKYKFEVYEKND”, “soluble”. As for “MGSDKIHHHHHHMGKKNYGKSVKTRLLNLMNETGYKYMYLLARYFNERLLYRVSVSQYKDNFLLKGGSLLYAMNGLEARPTVDVDFMADRISRDRDFLARVFQEILGIVCDEDGVSFDAGSIKIEPITVEKKYPGTRFYFTAHMDTIAYNMSVDIGFGDVVIPHPTTIDFPLLLPDIPSVNIQAYSLETVIAEKFHTMIDRDVLNSRMKDFFDCYQLLTKRNLNDDALYDAIEATFDNRGLAYNPDLQLFTDSFATDRARISRWKAFLRKIQWKEALDFDTVMKAIRDRLQPMAEKYWIKLSK”, the entry is “not soluble”; as for “SLAVLGLGYAGLFKSQMESLEEYEAKETELKNTYKQKSIDAASLNNLRDELASIRSAFDIMLKQLPTDAEIPNLVQELHQAGSSNGLRLDSVMPQPPVDDGPIKRLPYSISITGNYEQISQFTRDVGSLSRIITLESLKIAQSPENGGNPDGKSSILNLSAIATTYQAKSVEELAAEAAQNAEQK”, “soluble”. With “MGSDKIHHHHHHANVEVQKENFVFSIKGTDTLSLDKYELPSISPASKKPVMIFAFGGGFKGGDKADKGYIPYFEFLARNGFVVVSTDYRTTLKNLDPSKVSSPMDFIAALQHAIDTAVEDFYDATGFVINQSSDWNIDVEQIVASGSSAGAITVLQAEYDLCNGHELAKRLPAGFNYAGVISYAGAVSGVLPPHWEKMPCPIMLFHGDADKTVPFEQAAMENLGGLWGSSAVAKSLENLQASYYFYKVENAGHEISGLPMSRNQYDIMSFLSRQVLGDENLAITTDERVPGDTIVRKDFTVQDYILDNLR” the entry was “not soluble”; with “MGSDKIHHHHHHMVELQRVTASSLQQSFAGDVYNTGVYLKRTFSDINTHLVTAIGQDSFSQAMLQRFEDEKINTDMVFQSTDKIAGLYAIQTDSKGERSFTYWRNDSAAKQIMQFIGDAAISKISQADMVFFSGISLAVINEEDRDAFWLLIKQCKQAGVSIVFDPNYRARMWHSPDQAKAQFDIAFSVADVVLPGVDDFNQLYGISSVEDIIAFCQPYDINELVIKNGENGINYVINGQQQHFSITPVTNVVDTTSAGDSFNGVYLGARLTGADISTAIKLASQAAGFVIQHKGAIAPKIEFHQFIERQKLIMQ”, “not soluble”; with “SDEINAQSVWSEEISSNYPLCIKNLMEGLKKNHHLRYYGRQQLSLFLKGIGLSADEALKFWSEAFTNMTMEKFNKEYRYSFRHNYGLEGNRINYKPWDCHTILSKPRPGRGDYHGCPFRDWSHERLSAELRSMKLTQAQIISVLDSCQKGEYTIACTKVFEMTHNSASADLEIGEQTHIAHPNLYFERSRQLQK”, “soluble”.
